A short description of the data set: soluble on expression in E. coli; label from the status in PepcDB or PDB records.
Turning to “MANPTVIKLQDGNVMPQLGLGVWQASNEEVITAIQKALEVGYRSIDTAAAYKNEEGVGKALKNASVNREELFITTKLWNDDHKRPREALLDSLKKLQLDYIDLYLMHWPVPAIDHYVEAWKGMIELQKEGLIKSIGVCNFQIHHLQRLIDETGVTPVINQIELHPLMQQRQLHAWNATHKIQTESWSPLAQGGKGVFDQKVIRDLADKYGKTPAQIVIRWHLDSGLVVIPKSVTPSRIAENFDVWDFRLDKDELGEIAKLDQGKRLGPDPDQFGG”, the “soluble on expression in E. coli” value was “soluble”. With “MPERFVEMLREENGKIIVRIPGETARYANLEGKEGEYLLVDLVKVFDPHLKLPTHSIGEKAICRTVTFRDNRGYEHLGLEIPQELVNDYGMKAGEYLEAVIEHAILRDKIAAVYPNLEILNQYPYWWRKISQ”, the “soluble on expression in E. coli” value is reported as “not soluble”. For the sequence “MKHEIKHDPAFRALTPKWHHGYRFQYEPAQKAHVVLYPEGMIKLNDSASLIGGLIDGERTIAAIIAELQREFPNIPELGMDVDDFMKVAKEKYWIDLV”, the “soluble on expression in E. coli” value is “not soluble”. For “MPSRQLEDPGAGTPSPVRLHALAGFQQRALCHALTFPSLQRLVYSMCSLCQEENEDMVPDALQQNPGAFRLAPALPARPHRGLSTFPGAEHCLRASPKTTLSGGFFVAVIERVEMPT” the value was “not soluble”. The result for “MGSDKIHHHHHHMRILFYCDTVFSFGGVQRVLAEIAKALSGKHEVTILTTDTCTDLSMYGYAESTVRFDSFSYSASSFIERLLCKGYSFLYKHGLPHTRLTSEWYAASFFPSSYKRTLARKINARQCDVVIGVHAFMALHLSAVKSRIRTKTVGWLHNSYEAFFEKETPYLPGLDCFFQVQMGKLDERVVLSHADAGCFFRKMNLCCEVIYNPLTVLPKGRGKKEYRRILAVGRFSFGHKGFDILIKAFSVFVKTHPDWTLEIVGEGPEEALYRSLINEYELEKSIALHPFTKEVQEYYAHSSMYVLSSRWEGFGLVMIEAMAHGLPVIASDLPITRELLKDKDMAVLFETGNIAQLAGCMSYMADRTDWEWMGNKAVEYADTFHIEKVCDSWNNLLKKVVYGTR” reads “not soluble”. In the case of “MRFAVLGSGSRGNGTLVASNDTYVLVDCGFSLRETERRLARLGVAASQLSAILVTHEHADHVHGVGLLSRRYNVPVYLSSGTLRGMRKPVEVAGLLAGGESLQIGALDIDVVSVAHDALEPTQFVFSDGSRRFGLLTDLGSYCSNVLQRYQGLDALMIEANHCRDMLARGQYPVFLKQRVGCETGHLNNHQAASLVSELGWQDLQHLVLAHLSSKNNLPHLARQCFVDTLGCDPDWLQLADQDSGLDWRHIALEHHHHHH”, the “soluble on expression in E. coli” value is given as “not soluble”.

Consider “MRNTKGNELEDREILASSLHANGISETVLLQIWNATEENLDKLVSALNVYKKGKISITWHEIMTVKENNEAIIPFSVAVQNIYGAFKNIDEELAELARNAIESGWVDAEPRENKPPGGFCAPFFSEKESRISMRYDGSIDSVRILAHELGHAWHFYNMSFEQSSSFLDDYLPMSTAESASIFFETLLINYLIQTTDSIDIKKSLLSWKIRNCFNYVMAIRASFEFEKNFYEKCKESPISADEIEKISIVAQEKAYGNALSEYQPFVWMKYVQFYIADVPFYNYPYTFGYLVSFSLLEIAKENKSTFHSKFKEFLRENGKAPVEELIKKHFEIDITSYAFWDKAFKQISKDIDAYLRLI”, for which the “soluble on expression in E. coli” value is on record as “not soluble”. As for “MASSSSSSEHKVFLSFRREDTGRTFVSHLYRSLDQKEIRTYKFENQQAGDGKRISSEVKQAINESRIAVVVISENYVSSVLCLDVLAKIIERLPLIKIETVFYEVDPGDLTRPTGKFADDFRRHEARENRRTVNRWRDALDQLVSITNSNFCSRNWEDDSKMIDDLIIRLINIYFSKYYTPDVDIIAETTVGLDASVLGLMTDIDMKYKLNSLSGSVESGFGLERYALEATSVMDDMSNESPSPTSDDSNGLVGMYRHKKAVYGLLDLESKNQVRTIGIWGFQGVGKTTLAECVFDDISSHFQHYCFLTNANKIYQNRISPSLLKHLTRRRSSEDIFDAIKPSLVNRKVLFVVDGVDATYNEQFNDAMKVTRWLGPGSRIIMTSRFKSSLKFGGAKYEMECLRYEEALQLFSLYAFKKTYPLIGFELFSIRAVHFAGRLPLSLKVLGSFLYDKDEESWKRTLHKLEASQDNDRRYVSNYIGAGEYLPRRQIELEQYVSPDEEEYSPSYIMSL”, the “soluble on expression in E. coli” value is “soluble”. The result for “MFDLPVETEEQRRNYRIFRKELIQEGFVMIQYSIYVRVCPSREFANRIENRIKKNLPLEGNVRLLCVTEKQYDDMKLLVGSRQTSETAIGTERLIIILEHHHHHH” reads “not soluble”; that for “MNQKYILSANNNSLIEEIHNTVQSIGYCIVRGLNLNHLDGSRRNKKLFDFLSQLGMLTNHKGDGFKSIFWDIKY”, “not soluble”.

For “MEDLEHGVASNGLRYGFYRVESESAAICIAARGGSSFEPPGKYGIAHLTEHMIFRGNEYLQDGELDRAVELSGGEANAYTTRELILLCAEFVSDSLARVAEKLFLAVSARRLVEGEFERERAVVEAEVKGLISSPESRIYRLAHASAWGDSHLGRPIEGYPETVANISKADVEEYKASVFSPERMSLAIVGRISRLEALRVVKLFSQLEPGGKVREPETPEPRTTFLREERGIEAAYAALTLPLPPRSGLANVLARLRGVVFNLEAGATSILFKEVREERGLAYGFNVDVHITSWGSSMSLIVLEGNRDRVGELFDAMTRSLERALRGGYPESEWREGRRRLYRFYTRREAISNMERADALSAVILFHEKPFTLEDLVNQTLSSEWSLEEFLRLPRGLALIV”, the “soluble on expression in E. coli” value is “not soluble”. Take “MGSDKIHHHHHHEVPIGFDTDELSFDMSLVLLTGDMQTKASDPNYTYATTEELTIQNCHVAVFDKDGKRIYFKNFYSKDLGEMKTIGNLSGYELQLEGVRTFGKEDKKVSVLVVANANNANNSPFDNLTTYDGVDNSYTAKTIAKGPVTASLLVKIGKSETTLKYNQDNAPVTVSLIQLSAKIEYTGVYKKENGELLEGFSLTKVAGLNASSKITIFNTSAVENGAFSDLAYPTTKPVTFYTYEISDAFKEVILSVQSGVEPKEYPFPANKFIKGNYYRIKGLKSSTEIEWVLENVEDKEVTLDPFE”: the “soluble on expression in E. coli” value is given as “not soluble”. For “MPRRIDKVSSMTKGHITMSMNKLNLFNIYRKDPLQYFGKTLYQQKWAAKTETRNYHGQQIKEKRFKNVLFDSNLKTYSQLDASLKGHDVAPTPITLQTYGTLEKRLEIALFRSMFASSVRQARQFILGGYVKVNGVVIKHPSFPLQSGDVFSVDPEKVLFALGKTKPSLEKALSVDKKQIKKWNNYVFEAKKNPEKIWDLKQNKPDSLDTLKQVEDFEKQKKSVQNAQKLMKIQQNQVTRQSILQEIIQLGNAASEPASLETFNKYGDVARTKCLQIYQTLTNKNHPITKDPSTKNIEGFLAKDENKSPEEKHEVRLINSTLRELQSSEWERIRIQFENFEEGTDTKFFQTSFAKALRGVPKLNKEEILEDESKAKVQLPWQKHLFGRKDPSRSYFTPWTPRPFLGAFAILPSHIEISFDTCHAIYLRDPVARPGHSEVISPFPDHVHERAYMYYVRKGKS” the value was “not soluble”; for “MSLNAGAVKLDESMTPMQAMAAVAAECVDHIARNAAVLAEVDTLGVYRAGTPEHVHQLRVGVRRLRSAWRLFDGWIADPSETLAQGARTHFSAFGMARDQDVLADTIMPLLARAGMPALPAEAAPSNDNAQSLAADRAFQGWLLELLAWSLDVPAEAAPPALRKRLTGRLRRWHLKVIDEGLRFGALELEARHELRKRVKRLRYGLSFAESLLPAARLRTYRKQLARVQDLLGEINDLAVARDYYQAALQAHPQAWFAVGWIGARLDGLTPQAQEAFDQLAHAKPFWKEGHHHHHH”, “not soluble”.

For the sequence “MALEYVVTKRVFGFDKDKNEKYVAKSVRSGRVSFSKMCGKVSRLCGVHRKVVDLVVSGLVDMMAEDIDDGKSVQMGEFGIFSPTIRAKSADDEKEVSSKSIVQRKILFYPGKIFKTTLDDMSITRRAELDTDYTDGSSNNGSGSEKPNPGGDGGKDDEEAPDPTV”, the “soluble on expression in E. coli” value is reported as “not soluble”. The result for “MPVSDQLIDQLLADYESPQDLLGEQGILRQLTKKLAERALEAEMELHLGYAKHDAAGFNTGNSRNGKSRKSVRSIHGDIELETPRDRNGSFEPKLIKKGEKQLGGFDERIVSLYARGMSTRDIQAHFEETYGVEVSPTFISQITNAVLDEVKAWQLRPLAPVYPIVYLDCLVVRSRDSGSIQNKSVYLALGVNTDGEKELLGLWIAQTEGAKFWLSVMNELKNRGVEDIFIACVDGLKGFPDAIEAVYPKTQVQLCIVHQIRNSLRFVSWKERKAVAADLKTIYGAATLQQAELALEQFAKTWDKQHPSISKSWRENWTRLSVFFDYPPEIRKVIYTTNAIESLNASLRQVTKTRRSFPSDDAVLKLLYLALHQIAKKWTMPLRDWKPAMTQFMIMYSDRVSL” reads “not soluble”; that for “MTQHQTLPQTTEGAYHYQVIRRAIELIDQTDQPISLDEIAANMGMSPAHFQRVFSRWVGVSPKRYQQYLTLGHAKTLLSERFSTLAASHAVGLSGSGRLHDLFLRWEAMSPGEFARKGAGLTIYWGWFESPFGPAIVMGTEKGICGMGFAAEMGAETAFEDLAARWPQASYVEDPMMLRPWVLQAFGAKDGALDTTPLFLIGAPFQIKVWEALLSIPTGHVTTYSEIAQAVGAPRAVRAVGTAVGRNPISWIIPCHRALRKSGGLGGYHWGIPMKRAMLAYEAVELETLEHHHHHH”, “not soluble”. “MSLNKELIQHAAYAAIERILNEYFREENLYQVPPQNHQWSIQLSELETLTGEFRYWSAMGHHMYHPEVWLIDGKSKKITTYKEAIARILQHMAQSADNQTAVQQHMAQIMSDIDNSIHRTARYLQSNTIDYVEDRYIVSEQSLYLGHPFHPTPKSASGFSEADLEKYAPECHTSFQLHYLAVHQDVLLTRYVEGKEDQVEKVLYQLADIDISEIPKDFILLPTHPYQINVLRQHPQYMQYSEQGLIKDLGVSGDSVYPTSSVRTVFSKALNIYLKLPIHVKITNFIRTNDLEQIERTIDAAQVIASVKDEVETPHFKLMFEEGYRALLPNPLGQTVEPEMDLLTNSAMIVREGIPNYHADKDIHVLASLFETMPDSPMSKLSQVIEQSGLAPEAWLECYLNRTLLPILKLFSNTGISLEAHVQNTLIELKDGIPDVCFVRDLEGICLSRTIATEKQLVPNVVAASSPVVYAHDEAWHRLKYYVVVNHLGHLVSTIGKATRNEVVLWQLVAHRLMTWKKEYANNAVFVDCVEDLYQTPTIAAKANLMSKLNDCGANPIYTHIPNPICHNKEVSYCESEGHHHHHH”: the “soluble on expression in E. coli” value is on record as “soluble”. As for “MGSDKIHHHHHHMVLNINSFYKNCRGEFMRAVFIYHKNNQRMEKFYKNLLNEPDFCRICDDCYNCRGNWTFKNNVKNIVIEEVYEEFVDNPYDYLPELPEGDICIAQLHEDLLYELPLLLKEKGYKALIVPSETPHDLSLALRRDLKRVCSNYNIEFENPKPFCSLEKKEGNEYINKFIDYFKIGKPELEIEVENGLIKDVKVKISAPCGETYYIAKRLKGKAIDDLKEEIANAHHNYPCLASMEMDKELGDTILHKAGYIAFEVVEKALKK”, the “soluble on expression in E. coli” value is recorded as “not soluble”. For “MGSDKIHHHHHHMAGVSPLSNRWSKQVLSNFEQAASTYNSQAQLQRAVAWRLARQCARQHIPAGFWVDLGSGTGLMADALEACNPHQAVLRVDGCHEMLKHHHHSSQTLLWDLNLGVPSWPQLPSLLASSFALHWLINPLERLHEWMAALTPEGWLALALPVEGSFPQWHQAAATAGVSCTALPFPSQASLLDVLSSNNIRHQQLHQFTQQSPEVFQLLKPMRQIGAQASPCSTMGVGNWRHLKQAWPRCQNSGDAQLTWLIQLLLIQR” the value was “not soluble”; for “MSVNEADLNAVEEQLGRAPRGVLDISYRSPDGVPGVVMTAPKLDDGTPFPTLYYLTDPRLTTEASRLEVALVMKWMTDRLSTDEELRADYQRAHEHFLAKRNAIEDLGTDFSGGGMPDRVKCLHVLIAYALAEGPDHFRLGTEAVAMAAEHGDLRGTAIPEDWPTVQDLGINMEDFDFSRAGGA”, “not soluble”.
